This assay can be described thus: UDP luminescence plate assay of E. coli extracts, mutants of SEQ ID No: 1, 2 mM metribuzin. It counts as biochemical, Zea mays. The following applies: for SIGNAL: metribuzin signal of mutant divided by metribuzin signal of w/t bx9 / luminescence signal with metribuzin / SIGNAL: metribuzin signal of mutant divided by the signal of w/t bx9 / luminescence signal observed with 2 mM metribuzin / RATIO: metribuzin signal to DMSO signal: 2 mM metribuzin; for luminescence signal with metribuzin: H24A null background 1.00E+05 not subtracted; for SIGNAL: metribuzin signal of mutant divided by the signal of w/t bx9: relative to bx9 w/t; for luminescence signal in the DMSO control: mutants of SEQ ID No: 1, DMSO in place of metribuzin (background UDP-glucose hydrolysis); for luminescence signal observed with 2 mM metribuzin: mutants of SEQ ID No: 1 in E. coli extracts, UDP luminescence. Here is the method:
Optionally plate assays are stopped with brief heating to 95 C before returning to ice and addition of UDP-Glo detection reagent followed by incubation at lab temperature. […] In addition a UDP standard curve is run alongside each set of plate tests.
Assays were carried out on extracts of E. coli BL21 DE3 expressing the various C-terminally his-tagged library variants of SEQ ID NO:1 at the amino acid positions listed in Table 11 as described in Example 2 except, in this case, with 2 mM metribuzin in place of herbicide V.
Thus the ratio of the metribuzin to DMSO signal as well as the increase in signal relative to the w/t bx9 is used to help distinguish those mutations most likely to offer the highest activity to metribuzin. A follow up assay monitored by, for example, LC MS is one method to distinguish these cases more quantitatively.

B1: S117G: bx9 SEQ ID NO:1 mutant (protein)
chain: MASSRTGAGAGGRVVVFPFPFQGHFNPVMRLARALHARGLAITVFHSGALDPADYPADYRFVPVTVEADPKLLASEDIAAIVTTLNASCDAPFRARLSALLAAEGRDSVRCVFTDVGWNAVLTASSDLGVPALGMMTASAASLRDYMAYRTLIDKGYLPVKEERKEDPVPELPPYLVKDLLRVDTSDLEEFAELLARTVTAARRASGLIFNTFPLIETDTLAEIHKALSVPVFAVAPLNKLVPTATASLHGVVQADRGCLQWLDTQQPGSVLYVSFGSMAAMDPHEFVELAWGLADSKRPFVWVVRPNLIRGFESGALPDGVEDEVRGRGIVVAWAPQEEVLAHPAVGGFLTHNGWNSTVEAISEGVPMVCCPRHGDQFGNMRYVCDVWKVGTELVGEQLERGQVKAAIDRLFGTKEGEEIKERMKEFKIAAAKGIGIGVDVDETASPRTDLTDLVDLIKSF
modifications: Zea mays
In the case of B1, the “SIGNAL: metribuzin signal of mutant divided by metribuzin signal of w/t bx9” value was 1.26, the “luminescence signal with metribuzin” value is reported as 1.56E+05, the “SIGNAL: metribuzin signal of mutant divided by the signal of w/t bx9” value came out at 1.07 and the “luminescence signal in the DMSO control” value came to 2.41E+05. For the same molecule, the “luminescence signal observed with 2 mM metribuzin” value worked out at 3.00E+05.

B2: M279W: bx9 SEQ ID NO:1 mutant (protein)
chain: MASSRTGAGAGGRVVVFPFPFQGHFNPVMRLARALHARGLAITVFHSGALDPADYPADYRFVPVTVEADPKLLASEDIAAIVTTLNASCDAPFRARLSALLAAEGRDSVRCVFTDVSWNAVLTASSDLGVPALGMMTASAASLRDYMAYRTLIDKGYLPVKEERKEDPVPELPPYLVKDLLRVDTSDLEEFAELLARTVTAARRASGLIFNTFPLIETDTLAEIHKALSVPVFAVAPLNKLVPTATASLHGVVQADRGCLQWLDTQQPGSVLYVSFGSWAAMDPHEFVELAWGLADSKRPFVWVVRPNLIRGFESGALPDGVEDEVRGRGIVVAWAPQEEVLAHPAVGGFLTHNGWNSTVEAISEGVPMVCCPRHGDQFGNMRYVCDVWKVGTELVGEQLERGQVKAAIDRLFGTKEGEEIKERMKEFKIAAAKGIGIGVDVDETASPRTDLTDLVDLIKSF
modifications: Zea mays
As for B2, the “SIGNAL: metribuzin signal of mutant divided by metribuzin signal of w/t bx9” value worked out at 1.14, the “luminescence signal with metribuzin” value was 1.41E+05, the “SIGNAL: metribuzin signal of mutant divided by the signal of w/t bx9” value is 1.26 and the “luminescence signal in the DMSO control” value was 2.09E+05. Further, the “luminescence signal observed with 2 mM metribuzin” value worked out at 3.51E+05.

B3: A334E: bx9 SEQ ID NO:1 mutant (protein)
chain: MASSRTGAGAGGRVVVFPFPFQGHFNPVMRLARALHARGLAITVFHSGALDPADYPADYRFVPVTVEADPKLLASEDIAAIVTTLNASCDAPFRARLSALLAAEGRDSVRCVFTDVSWNAVLTASSDLGVPALGMMTASAASLRDYMAYRTLIDKGYLPVKEERKEDPVPELPPYLVKDLLRVDTSDLEEFAELLARTVTAARRASGLIFNTFPLIETDTLAEIHKALSVPVFAVAPLNKLVPTATASLHGVVQADRGCLQWLDTQQPGSVLYVSFGSMAAMDPHEFVELAWGLADSKRPFVWVVRPNLIRGFESGALPDGVEDEVRGRGIVVEWAPQEEVLAHPAVGGFLTHNGWNSTVEAISEGVPMVCCPRHGDQFGNMRYVCDVWKVGTELVGEQLERGQVKAAIDRLFGTKEGEEIKERMKEFKIAAAKGIGIGVDVDETASPRTDLTDLVDLIKSF
modifications: Zea mays
As for B3, the “RATIO: metribuzin signal to DMSO signal” value is 0.96, the “SIGNAL: metribuzin signal of mutant divided by metribuzin signal of w/t bx9” value came to 1.25 and the “luminescence signal with metribuzin” value was 1.54E+05.

B4: A334T: bx9 SEQ ID NO:1 mutant (protein)
chain: MASSRTGAGAGGRVVVFPFPFQGHFNPVMRLARALHARGLAITVFHSGALDPADYPADYRFVPVTVEADPKLLASEDIAAIVTTLNASCDAPFRARLSALLAAEGRDSVRCVFTDVSWNAVLTASSDLGVPALGMMTASAASLRDYMAYRTLIDKGYLPVKEERKEDPVPELPPYLVKDLLRVDTSDLEEFAELLARTVTAARRASGLIFNTFPLIETDTLAEIHKALSVPVFAVAPLNKLVPTATASLHGVVQADRGCLQWLDTQQPGSVLYVSFGSMAAMDPHEFVELAWGLADSKRPFVWVVRPNLIRGFESGALPDGVEDEVRGRGIVVTWAPQEEVLAHPAVGGFLTHNGWNSTVEAISEGVPMVCCPRHGDQFGNMRYVCDVWKVGTELVGEQLERGQVKAAIDRLFGTKEGEEIKERMKEFKIAAAKGIGIGVDVDETASPRTDLTDLVDLIKSF
modifications: Zea mays
Take B4: the “RATIO: metribuzin signal to DMSO signal” value is 0.95, the “SIGNAL: metribuzin signal of mutant divided by metribuzin signal of w/t bx9” value turned out to be 1.25 and the “luminescence signal with metribuzin” value came to 1.54E+05.

B5: M135V: bx9 SEQ ID NO:1 mutant (protein)
chain: MASSRTGAGAGGRVVVFPFPFQGHFNPVMRLARALHARGLAITVFHSGALDPADYPADYRFVPVTVEADPKLLASEDIAAIVTTLNASCDAPFRARLSALLAAEGRDSVRCVFTDVSWNAVLTASSDLGVPALGVMTASAASLRDYMAYRTLIDKGYLPVKEERKEDPVPELPPYLVKDLLRVDTSDLEEFAELLARTVTAARRASGLIFNTFPLIETDTLAEIHKALSVPVFAVAPLNKLVPTATASLHGVVQADRGCLQWLDTQQPGSVLYVSFGSMAAMDPHEFVELAWGLADSKRPFVWVVRPNLIRGFESGALPDGVEDEVRGRGIVVAWAPQEEVLAHPAVGGFLTHNGWNSTVEAISEGVPMVCCPRHGDQFGNMRYVCDVWKVGTELVGEQLERGQVKAAIDRLFGTKEGEEIKERMKEFKIAAAKGIGIGVDVDETASPRTDLTDLVDLIKSF
modifications: Zea mays
Regarding B5, the “RATIO: metribuzin signal to DMSO signal” value was determined as 0.97, the “SIGNAL: metribuzin signal of mutant divided by metribuzin signal of w/t bx9” value worked out at 1.18 and the “luminescence signal with metribuzin” value is on record as 1.46E+05.

B6: A334C: bx9 SEQ ID NO:1 mutant (protein)
chain: MASSRTGAGAGGRVVVFPFPFQGHFNPVMRLARALHARGLAITVFHSGALDPADYPADYRFVPVTVEADPKLLASEDIAAIVTTLNASCDAPFRARLSALLAAEGRDSVRCVFTDVSWNAVLTASSDLGVPALGMMTASAASLRDYMAYRTLIDKGYLPVKEERKEDPVPELPPYLVKDLLRVDTSDLEEFAELLARTVTAARRASGLIFNTFPLIETDTLAEIHKALSVPVFAVAPLNKLVPTATASLHGVVQADRGCLQWLDTQQPGSVLYVSFGSMAAMDPHEFVELAWGLADSKRPFVWVVRPNLIRGFESGALPDGVEDEVRGRGIVVCWAPQEEVLAHPAVGGFLTHNGWNSTVEAISEGVPMVCCPRHGDQFGNMRYVCDVWKVGTELVGEQLERGQVKAAIDRLFGTKEGEEIKERMKEFKIAAAKGIGIGVDVDETASPRTDLTDLVDLIKSF
modifications: Zea mays
In the case of B6, the “RATIO: metribuzin signal to DMSO signal” value is listed as 0.94, the “SIGNAL: metribuzin signal of mutant divided by metribuzin signal of w/t bx9” value was 1.13 and the “luminescence signal with metribuzin” value is 1.39E+05.

Source of the values: US20200270588A1, “GLUCOSYL TRANSFERASE POLYPEPTIDES AND METHODS OF USE” (Syngenta Participations AG, priority 2017, published 2020).
